Experimental data taken from IntAct's records for PubMed 25609649.

B1: F-box/WD repeat-containing protein 11 (Homo sapiens), Q9UKB1 (parent)
chain: MEPDSVIEDKTIELMCSVPRSLWLGCANLVESMCALSCLQSMPSVRCLQISNGTSSVIVSRKRPSEGNYQKEKDLCIKYFDQWSESDQVEFVEHLISRMCHYQHGHINSYLKPMLQRDFITALPEQGLDHIAENILSYLDARSLCAAELVCKEWQRVISEGMLWKKLIERMVRTDPLWKGLSERRGWDQYLFKNRPTDGPPNSFYRSLYPKIIQDIETIESNWRCGRHNLQRIQCRSENSKGVYCLQYDDEKIISGLRDNSIKIWDKTSLECLKVLTGHTGSVLCLQYDERVIVTGSSDSTVRVWDVNTGEVLNTLIHHNEAVLHLRFSNGLMVTCSKDRSIAVWDMASATDITLRRVLVGHRAAVNVVDFDDKYIVSASGDRTIKVWSTSTCEFVRTLNGHKRGIACLQYRDRLVVSGSSDNTIRLWDIECGACLRVLEGHEELVRCIRFDNKRIVSGAYDGKIKVWDLQAALDPRAPASTLCLRTLVEHSGRVFRLQFDEFQIISSSHDDTILIWDFLNVPPSAQNETRSPSRTYTYISR
partner: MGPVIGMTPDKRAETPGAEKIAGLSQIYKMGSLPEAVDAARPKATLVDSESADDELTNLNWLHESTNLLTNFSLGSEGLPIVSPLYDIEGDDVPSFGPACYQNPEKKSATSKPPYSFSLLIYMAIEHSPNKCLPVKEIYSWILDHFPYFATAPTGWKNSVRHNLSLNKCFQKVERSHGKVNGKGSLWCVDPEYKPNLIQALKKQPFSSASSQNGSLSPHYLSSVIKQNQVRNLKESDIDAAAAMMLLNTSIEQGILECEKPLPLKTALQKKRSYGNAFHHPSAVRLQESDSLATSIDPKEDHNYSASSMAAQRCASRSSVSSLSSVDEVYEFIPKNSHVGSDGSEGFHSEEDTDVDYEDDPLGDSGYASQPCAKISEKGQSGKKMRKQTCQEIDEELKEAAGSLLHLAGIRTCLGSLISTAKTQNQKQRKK

Variants of: B1
Conditions: with foxn2_human FOXN2, P32314

effect of a mutation on the interaction | Variant
disrupting interaction | MEPDSVIEDKTIELMCSVPRSLWLGCANLVESMCALSCLQSMPSVRCLQISNGTSSVIVSRKRPSEGNYQKEKDLCIKYFDQWSESDQVEFVEHLISRMCHYQHGHINSYLKPMLQRDFITALPEQGLDHIAENILSYLDARSLCAAELVCKEWQRVISEGMLWKKLIERMVRTDPLWKGLSERRGWDQYLFKNRPTDGPPNSFYRSLYPKIIQDIETIESNWRCGRHNLQRIQCRSENSKGVYCLQYDDEKIISGLRDNSIKIWDKTSLECLKVLTGHTGSVLCLQYDERVIVTGSSDSTVRVWDVNTGEVLNTLIHHNEAVLHLRFSNGLMVTCSKDRSIAVWDMASATDITLRRVLVGHRAAVNVVDFDDKYIVSASGDRTIKVWSTSTCEFVRTLNGHKRGIACLQYRDRLVVSGSSDNTIRLWDIECGACLRVLEGHEELVRCIRFDNKRIVSGAYDGKIKVWDLQAAADPRAPASTLCLRTLVEHSGRVFRLQFDEFQIISSSHDDTILIWDFLNVPPSAQNETRSPSRTYTYISR [L474A]
